Test [1] has as its target T1, purified hexon protein from ChAdOx1 (chimpanzee adenovirus Y25 (ChAdOx1)).
T1 chain: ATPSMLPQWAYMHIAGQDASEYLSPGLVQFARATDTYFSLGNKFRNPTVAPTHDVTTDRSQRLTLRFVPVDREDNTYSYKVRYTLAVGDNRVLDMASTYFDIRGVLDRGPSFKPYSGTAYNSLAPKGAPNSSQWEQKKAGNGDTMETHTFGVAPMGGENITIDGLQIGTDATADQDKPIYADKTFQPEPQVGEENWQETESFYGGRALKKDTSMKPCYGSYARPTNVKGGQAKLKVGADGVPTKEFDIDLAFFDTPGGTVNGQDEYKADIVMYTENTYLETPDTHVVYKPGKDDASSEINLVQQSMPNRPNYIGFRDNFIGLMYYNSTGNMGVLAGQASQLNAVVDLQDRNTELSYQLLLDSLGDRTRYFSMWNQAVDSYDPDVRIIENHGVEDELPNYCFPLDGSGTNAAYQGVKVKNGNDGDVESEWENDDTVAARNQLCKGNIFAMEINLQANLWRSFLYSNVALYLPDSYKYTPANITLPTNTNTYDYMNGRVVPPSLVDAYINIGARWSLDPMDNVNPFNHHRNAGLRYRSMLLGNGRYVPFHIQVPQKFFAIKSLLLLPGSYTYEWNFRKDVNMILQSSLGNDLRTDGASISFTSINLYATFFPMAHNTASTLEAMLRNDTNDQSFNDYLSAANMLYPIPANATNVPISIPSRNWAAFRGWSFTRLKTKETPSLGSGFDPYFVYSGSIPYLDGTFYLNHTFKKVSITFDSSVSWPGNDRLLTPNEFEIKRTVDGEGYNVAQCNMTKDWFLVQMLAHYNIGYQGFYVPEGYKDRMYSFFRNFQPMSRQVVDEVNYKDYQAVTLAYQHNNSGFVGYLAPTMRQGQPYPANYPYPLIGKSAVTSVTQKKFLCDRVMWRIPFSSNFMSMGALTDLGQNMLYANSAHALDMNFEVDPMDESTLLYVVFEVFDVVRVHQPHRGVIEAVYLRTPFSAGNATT
Kind of test: SPR.

Test [2] addresses T2, HAdV-C5 hexon protein (HAdV-C5, UniProt P04133 1-952).
T2 chain: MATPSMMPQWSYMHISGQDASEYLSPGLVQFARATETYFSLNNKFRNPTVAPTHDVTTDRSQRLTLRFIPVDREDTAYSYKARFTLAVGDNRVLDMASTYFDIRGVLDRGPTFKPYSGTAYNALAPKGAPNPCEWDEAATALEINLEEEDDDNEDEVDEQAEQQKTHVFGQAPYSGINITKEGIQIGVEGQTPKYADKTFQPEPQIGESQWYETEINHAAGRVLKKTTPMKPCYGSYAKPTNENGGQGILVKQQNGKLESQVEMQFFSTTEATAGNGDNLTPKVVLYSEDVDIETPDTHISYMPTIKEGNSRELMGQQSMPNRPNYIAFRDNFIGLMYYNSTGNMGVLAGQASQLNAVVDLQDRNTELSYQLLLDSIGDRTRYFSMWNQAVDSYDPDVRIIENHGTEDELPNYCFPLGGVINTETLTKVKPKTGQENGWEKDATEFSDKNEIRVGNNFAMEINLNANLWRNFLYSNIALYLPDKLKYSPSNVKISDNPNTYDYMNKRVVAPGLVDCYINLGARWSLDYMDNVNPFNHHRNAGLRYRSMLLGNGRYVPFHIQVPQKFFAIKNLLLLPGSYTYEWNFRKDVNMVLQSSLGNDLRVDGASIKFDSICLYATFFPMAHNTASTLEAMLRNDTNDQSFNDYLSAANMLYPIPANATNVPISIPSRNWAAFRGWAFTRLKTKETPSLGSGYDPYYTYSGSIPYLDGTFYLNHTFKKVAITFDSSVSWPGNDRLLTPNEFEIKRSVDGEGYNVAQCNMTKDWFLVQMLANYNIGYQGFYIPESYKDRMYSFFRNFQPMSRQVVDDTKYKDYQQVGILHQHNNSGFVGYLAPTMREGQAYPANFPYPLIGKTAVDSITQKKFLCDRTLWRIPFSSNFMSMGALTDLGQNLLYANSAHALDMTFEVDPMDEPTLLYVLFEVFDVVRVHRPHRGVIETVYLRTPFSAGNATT
As to the kind of experiment: SPR. In general terms: In SPR one partner is held on a chip, and binding of the other changes the refractive index at the surface.

Experimental findings from paper doi:10.1101/2025.03.09.642192 (2025) are described below.

The koff is a measure of how fast the partners let go of each other.

B1: platelet factor 4 (PF4) (natural protein)
chain: EAEEDGDLQCLCVKTTSQVRPRHITSLEVIKAGPHCPTAQLIATLKNGRKICLDLQAPLYKKIIKKLLES
For the molecule B1, the koff stood at 0.0106 s⁻¹ in test [1] and 0.0213 s⁻¹ in test [2].
